According to patent publication US20170355771A1 (Biogen, published 2017):
Where a chain is given by its changes, count along the chain named. Each block holds one binder with its values, some of them ahead of it.

Legend:
[1] = target: T1, biotinylated human GPIIb/IIIa ectodomain protein (human, UniProt P08514 32-993; P05106 27-718, biotinylated (site not stated)); test: SPR, biotinylated GPIIb/IIIa ectodomain on streptavidin chip, fusion protein as analyte, 1:1 model
T1 construct: extracellular domain; also called purified GPIIb/IIIa
T1 sequence (P08514 32-993, chain 1 of 2): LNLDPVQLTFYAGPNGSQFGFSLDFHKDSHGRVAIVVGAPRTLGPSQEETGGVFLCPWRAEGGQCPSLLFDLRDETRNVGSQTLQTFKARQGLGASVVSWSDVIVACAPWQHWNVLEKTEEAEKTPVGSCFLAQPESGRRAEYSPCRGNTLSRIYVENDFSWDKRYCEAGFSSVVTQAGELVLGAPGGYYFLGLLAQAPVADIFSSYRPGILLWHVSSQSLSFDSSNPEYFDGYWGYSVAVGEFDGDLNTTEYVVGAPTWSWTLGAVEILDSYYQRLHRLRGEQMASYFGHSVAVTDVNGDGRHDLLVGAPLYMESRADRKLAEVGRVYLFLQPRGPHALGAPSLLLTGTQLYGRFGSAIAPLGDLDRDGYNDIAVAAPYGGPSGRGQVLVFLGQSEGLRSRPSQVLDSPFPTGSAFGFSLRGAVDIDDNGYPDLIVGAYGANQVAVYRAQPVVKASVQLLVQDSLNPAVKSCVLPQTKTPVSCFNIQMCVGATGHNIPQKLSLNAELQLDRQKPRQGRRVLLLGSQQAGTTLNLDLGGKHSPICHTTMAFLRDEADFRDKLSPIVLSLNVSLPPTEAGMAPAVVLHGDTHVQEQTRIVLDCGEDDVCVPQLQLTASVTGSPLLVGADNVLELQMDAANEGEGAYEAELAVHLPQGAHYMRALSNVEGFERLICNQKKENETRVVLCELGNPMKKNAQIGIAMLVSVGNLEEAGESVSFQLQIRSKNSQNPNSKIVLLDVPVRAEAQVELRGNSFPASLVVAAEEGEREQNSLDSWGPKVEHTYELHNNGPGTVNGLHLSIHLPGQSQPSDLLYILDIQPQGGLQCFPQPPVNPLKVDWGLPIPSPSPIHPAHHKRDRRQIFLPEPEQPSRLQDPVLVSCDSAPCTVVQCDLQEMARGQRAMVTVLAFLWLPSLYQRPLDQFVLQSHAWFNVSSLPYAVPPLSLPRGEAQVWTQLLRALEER
T1 sequence (P05106 27-718, chain 2 of 2): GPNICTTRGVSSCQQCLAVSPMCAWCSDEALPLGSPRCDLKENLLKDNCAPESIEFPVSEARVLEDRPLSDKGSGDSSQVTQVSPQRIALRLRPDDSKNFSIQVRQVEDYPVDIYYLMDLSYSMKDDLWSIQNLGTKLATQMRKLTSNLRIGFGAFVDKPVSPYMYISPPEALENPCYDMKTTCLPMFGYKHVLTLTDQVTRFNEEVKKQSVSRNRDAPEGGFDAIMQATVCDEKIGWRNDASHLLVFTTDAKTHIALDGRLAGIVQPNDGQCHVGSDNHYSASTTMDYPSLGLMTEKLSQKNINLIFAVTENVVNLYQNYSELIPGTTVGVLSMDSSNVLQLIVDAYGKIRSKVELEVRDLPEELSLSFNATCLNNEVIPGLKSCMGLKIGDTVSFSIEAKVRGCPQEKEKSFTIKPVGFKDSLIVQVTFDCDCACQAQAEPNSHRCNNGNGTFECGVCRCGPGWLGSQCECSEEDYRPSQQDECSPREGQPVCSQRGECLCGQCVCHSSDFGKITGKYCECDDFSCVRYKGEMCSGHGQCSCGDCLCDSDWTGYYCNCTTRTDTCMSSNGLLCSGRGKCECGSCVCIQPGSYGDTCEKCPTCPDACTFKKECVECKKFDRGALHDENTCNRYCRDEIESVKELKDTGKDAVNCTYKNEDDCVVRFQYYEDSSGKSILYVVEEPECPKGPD

[2] = target: T1, biotinylated human GPIIb/IIIa …; test: surface plasmon resonance, biotinylated GPIIb/IIIa ectodomain on a streptavidin chip, analyte at 6.2 to 500 nM, 1:1 binding model
Description: The GPIIb/IIIa ectodomain protein was immobilized on an SPR chip coated with streptavidin (GE Healthcare).

[3] = target: T1, biotinylated human GPIIb/IIIa …; test: SPR, biotinylated GPIIb/IIIa ectodomain on streptavidin chip, Fab as analyte, 1:1 model
Protocol: The GPIIb/IIIa ectodomain protein was immobilized on an SPR chip coated with streptavidin (GE Healthcare). Next, the association and dissociation rates of Fab binding to GPIIb/IIIa at sequentially increasing concentrations of the Fab were measured following methods known in the art. The kinetic parameters were derived from a 1:1 binding model.

[4] = target: T2, GPIIb/IIIa (SEQ ID NOs: 23 and 24) (human, UniProt P08514 32-994; P05106 27-716); test: Bio-Layer Interferometry (OctetRed), monovalent format, yeast-purified Fab; apparent dissociation rate Kdis
T2 construct: also called GPIIb/IIIa complex
T2 sequence (P08514 32-994 limits assumed, chain 1 of 2): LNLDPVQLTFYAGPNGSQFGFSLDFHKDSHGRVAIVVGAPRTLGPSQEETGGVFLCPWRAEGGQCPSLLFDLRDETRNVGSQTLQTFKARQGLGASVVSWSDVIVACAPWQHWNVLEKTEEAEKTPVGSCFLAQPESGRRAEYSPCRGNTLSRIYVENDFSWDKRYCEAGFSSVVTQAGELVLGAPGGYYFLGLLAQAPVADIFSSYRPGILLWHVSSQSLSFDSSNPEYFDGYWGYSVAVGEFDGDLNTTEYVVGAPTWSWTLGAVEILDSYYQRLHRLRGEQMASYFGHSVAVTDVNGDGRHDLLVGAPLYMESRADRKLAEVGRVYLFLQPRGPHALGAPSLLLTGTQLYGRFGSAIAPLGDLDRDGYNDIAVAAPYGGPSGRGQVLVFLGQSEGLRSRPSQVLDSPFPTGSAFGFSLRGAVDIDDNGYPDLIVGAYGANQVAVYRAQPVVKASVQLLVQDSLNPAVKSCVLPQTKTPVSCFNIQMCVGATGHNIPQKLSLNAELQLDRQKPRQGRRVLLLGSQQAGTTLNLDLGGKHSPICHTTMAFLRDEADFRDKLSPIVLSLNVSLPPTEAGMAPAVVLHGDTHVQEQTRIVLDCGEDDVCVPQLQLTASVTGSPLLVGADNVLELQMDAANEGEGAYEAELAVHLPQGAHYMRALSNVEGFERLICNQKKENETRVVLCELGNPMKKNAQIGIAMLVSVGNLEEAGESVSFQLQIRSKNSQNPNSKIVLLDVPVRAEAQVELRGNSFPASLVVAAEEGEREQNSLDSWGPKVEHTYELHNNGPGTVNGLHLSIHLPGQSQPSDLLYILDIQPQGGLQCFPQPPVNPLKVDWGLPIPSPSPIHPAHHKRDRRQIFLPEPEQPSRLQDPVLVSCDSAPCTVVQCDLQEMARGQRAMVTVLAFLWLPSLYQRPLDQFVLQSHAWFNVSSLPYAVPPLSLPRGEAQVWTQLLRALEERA
T2 sequence (P05106 27-716 limits assumed, chain 2 of 2): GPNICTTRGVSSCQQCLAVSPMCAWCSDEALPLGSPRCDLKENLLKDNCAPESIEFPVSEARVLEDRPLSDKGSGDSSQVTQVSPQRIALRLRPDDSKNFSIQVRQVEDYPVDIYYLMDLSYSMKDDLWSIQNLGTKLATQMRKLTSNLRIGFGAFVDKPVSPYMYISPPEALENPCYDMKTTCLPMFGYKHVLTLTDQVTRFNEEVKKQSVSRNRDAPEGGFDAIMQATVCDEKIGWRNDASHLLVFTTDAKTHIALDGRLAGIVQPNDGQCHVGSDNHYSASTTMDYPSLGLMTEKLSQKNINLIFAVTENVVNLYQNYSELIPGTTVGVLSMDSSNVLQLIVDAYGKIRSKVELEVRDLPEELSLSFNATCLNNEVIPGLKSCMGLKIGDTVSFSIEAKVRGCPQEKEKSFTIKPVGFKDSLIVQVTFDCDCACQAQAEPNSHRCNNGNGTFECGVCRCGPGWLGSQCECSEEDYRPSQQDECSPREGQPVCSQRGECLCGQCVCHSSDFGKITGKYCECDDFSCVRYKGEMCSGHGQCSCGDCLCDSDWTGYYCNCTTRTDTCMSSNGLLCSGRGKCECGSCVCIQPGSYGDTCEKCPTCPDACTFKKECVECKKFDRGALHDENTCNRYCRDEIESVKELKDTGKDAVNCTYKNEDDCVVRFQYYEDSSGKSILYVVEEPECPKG
Protocol: (§1) BLI was performed on the OctetRed94 instrument, manufactured by ForteBio, according to standard procedures.

[5] = target: T2, GPIIb/IIIa (SEQ ID NOs: 23 and 24); test: Bio-Layer Interferometry (OctetRed), monovalent format, yeast-purified Fab; apparent monovalent affinity
Protocol: as §1

Kd [1]: 730 nM
koff [2]: 0.0174 s⁻¹
kon [2]: 23700 M⁻¹ s⁻¹
B1: FVII-250/Fab-062 (other)
chain: ANAFLEELRPGSLERECKEEQCSFEEAREIFKDAERTKLFWISYSDGDQCASSPCQNGGSCKDQLQSYICFCLPAFEGRNCETHKDDQLICVNENGGCEQYCSDHTGTKRSCRCHEGYSLLADGVSCTPTVEYPCGKIPILEKRNASKPQGRIVGGKVCPKGECPWQVLLLVNGAQLCGGTLINTIWVVSAAHCFDKIKNWRNLIAVLGEHDLSEHDGDEQSRRVAQVIIPSTYVPGTTNHDIALLRLHQPVVLTDHVVPLCLPERTFSERTLAFVRFSLVSGWGQLLDRGATALELMVLNVPRLMTQDCLQQSRKVGDSPNITEYMFCAGYSDGSKDSCKGDSGGPHATHYRGTWYLTGIVSWGQGCATVGHFGVYTRVSQYIEWLQKLMRSEPRPGVLLRAPFPGGGGSGGGGSGGGGSGGGGSGGGGSGGGGSEIVMTQSPATLSVSPGERATLSCRASSSVNYMYWYQQKPGQAPRLLIYYTSNLAPGIPARFSGSGSGTEFTLTISSLQSEDFAVYYCQQFSSSPWTFGQGTKVEIKRTVAAPSVFIFPPSDEQLKSGTASVVCLLNNFYPREAKVQWKVDNALQSGNSQESVTEQDSKDSTYSLSSTLTLSKADYEKHKVYACEVTHQGLSSPVTKSFNRGEC
heavy: EGTSESATPESGPGSEPATSGSETPGTSESATPESGPGSEPATSGSETPGTSESATPESGPGTSTEPSEGSAPGSPAGSPTSTEEGTSESATPESGPGSEPATSGSETPGTSESATPESGPGSPAGSPTSTEEGSPAGSPTSTEEGTSTEPSEGSAPGTSESATPESGPGTSESATPESGPGTSESATPESGPGSEPATSGSETPGSEPATSGSETPGSPAGSPTSTEEGTSTEPSEGSAPGTSTEPSEGSAPGSEPATSGSETPGTSESATPESGPGTSTEPSEGSAPEVQLVESGGGLVKPGGSLRLSCAASGFTFSAYAMSWVRQAPGKGLVWVASISSGGTTYYPDSVKRQFTISRDNAKNTLYLQMNSLRAEDTAVYYCTRGGDYGYALDYWGQGTLVTVSSASTKGPSVFPLAPSSKSTSGGTAALGCLVKDYFPEPVTVSWNSGALTSGVHTFPAVLQSSGLYSLSSVVTVPSSSLGTQTYICNVNHKPSNTKVDKKVEPKSC
notes: also called Fab-250/Fab-062 (as printed once)

Kd [3]: 2.8 nM
koff [4]: 0.0563 s⁻¹
Kd [5]: 155 nM
B2: humanized 34D10 Fab L0/H2 (Fab, V domains shown)
VH: EVQLVESGGGLVKPGGSLRLSCAASGFTFSAYAMSWVRQAPGKGLVWVASISSGGTTYYPDSVKRQFTISRDNAKNTLYLQMNSLRAEDTAVYYCTRGGDYGYALDYWGQGTLVTVSS
VL: EIVMTQSPATLSVSPGERATLSCRASSSVNYMYWYQQKPGQAPRLLIYYTSNLAPGIPARFSGSGSGTEFTLTISSLQSEDFAVYYCQQFSSSPWTFGQGTKVEIK
notes: Fab; also called VL0/VH2

Kd [3]: 110 nM
B3: humanized 34D10 Fab L1/H3 (Fab, V domains shown)
VH: B2 VH with E6Q, G16E, V46E, Q66R
VL: B2 VL with M4L, I57V
notes: Fab; only variable domains are tied by name; also called VL1/VH3

koff [4]: 0.0492 s⁻¹
Kd [5]: 240 nM
B4: affinity matured h34D10 Fab VH120/VL0 (Fab, V domains shown)
VH: B2 VH with K13E
VL: B2 VL
notes: Yeast-purified Fab

Kd [3]: 5.3 nM
B5: humanized 34D10 Fab L0/H5 (Fab, V domains shown)
VH: B2 VH with Q3K, V46E, Q66R, K75R
VL: B2 VL
notes: Fab; also called VL0/VH5

koff [4]: 0.0494 s⁻¹
Kd [5]: 230 nM
B6: affinity matured h34D10 Fab VH121/VL0 (Fab, V domains shown)
VH: B2 VH with K43E
VL: B2 VL
notes: Yeast-purified Fab

Kd [3]: 2.8 nM
B7: mouse Fab (34D10) (Fab, V domains shown)
VH: EVKLVESGGGLVKPGGSLKLSCAASGFTFSAYAMSWVRQTPEKRLEWVASISSGGTTYYPDSVKRRFTISRDNARNILYLQMSSLRSEDTAMYYCTRGGDYGYALDYWGQGTSVTVSS
VL: ENVLTQSPAIMSASLGEKVTMSCRASSSVNYMYWYQQKSDASPKLWIYYTSNLAPGVPARFSGSGSGNSYSLTISSMEGEDAATYYCQQFSSSPWTFGGGTKLEIK
notes: Fab; also called mouse 34D10 Fab
